Source: publication PMC2734569, “Functional mapping of the fission yeast DNA polymerase δ B-subunit Cdc1 by site-directed and random pentapeptide insertion mutagenesis” (BMC Molecular Biology, 2009)

Columns and labels:
Test in all cases: two-hybrid; LexA-Cdc1 bait (pBTM116 or pBTM116BN) with Gal4-Pol3 prey and co-expressed c-myc-tagged Cdc27 (pAA-Cdc27) in S. cerevisiae CTY10-5d; ONPG liquid culture beta-galactosidase assay, mean of triplicates, as percent of wild-type Cdc1
Conditions in all cases: partners not purified
[1] = molecular target: T1, Cdc1-J6 (Schizosaccharomyces pombe, UniProt P87324 1-462, Tyr-GlyValProHisTyr-Gly)
T1 construct: Cdc1, S. pombe, with a pentapeptide inserted after residue 124; source: yeast two-hybrid fusion, in S. cerevisiae CTY10-5d
T1 sequence (looked up): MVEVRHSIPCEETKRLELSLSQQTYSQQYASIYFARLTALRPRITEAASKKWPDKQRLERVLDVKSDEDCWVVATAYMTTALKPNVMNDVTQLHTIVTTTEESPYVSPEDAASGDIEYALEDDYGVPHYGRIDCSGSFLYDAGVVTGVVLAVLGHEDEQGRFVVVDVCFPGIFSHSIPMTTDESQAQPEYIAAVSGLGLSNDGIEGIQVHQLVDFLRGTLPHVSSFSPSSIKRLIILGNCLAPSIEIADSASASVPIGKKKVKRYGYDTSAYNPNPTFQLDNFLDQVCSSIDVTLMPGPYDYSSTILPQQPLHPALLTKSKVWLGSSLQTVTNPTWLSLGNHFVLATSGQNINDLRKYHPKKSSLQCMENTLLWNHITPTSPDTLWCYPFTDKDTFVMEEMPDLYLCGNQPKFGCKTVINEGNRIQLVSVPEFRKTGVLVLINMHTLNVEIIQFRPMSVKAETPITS

[2] = molecular target: T2, Cdc1-J16 (Schizosaccharomyces pombe, UniProt P87324 1-462, Val-GlyGlyThrProVal-Asp)
T2 construct: Cdc1, S. pombe, with a pentapeptide inserted after residue 160; source: yeast two-hybrid fusion, in S. cerevisiae CTY10-5d
T2 sequence (looked up): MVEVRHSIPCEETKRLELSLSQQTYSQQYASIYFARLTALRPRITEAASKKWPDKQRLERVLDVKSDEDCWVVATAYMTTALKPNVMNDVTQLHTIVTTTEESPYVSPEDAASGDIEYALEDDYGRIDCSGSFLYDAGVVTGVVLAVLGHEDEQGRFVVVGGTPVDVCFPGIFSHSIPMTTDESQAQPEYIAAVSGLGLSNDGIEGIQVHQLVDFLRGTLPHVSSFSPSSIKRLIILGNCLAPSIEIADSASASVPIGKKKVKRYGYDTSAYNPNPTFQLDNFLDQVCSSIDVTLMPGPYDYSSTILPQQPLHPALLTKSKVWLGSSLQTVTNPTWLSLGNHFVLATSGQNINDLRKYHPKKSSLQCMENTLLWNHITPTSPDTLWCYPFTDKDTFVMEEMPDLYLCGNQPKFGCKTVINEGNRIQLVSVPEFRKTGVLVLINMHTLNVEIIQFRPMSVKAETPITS

[3] = molecular target: T3, Cdc1-A7 (Schizosaccharomyces pombe, UniProt P87324 1-462, Gly344Ala)
T3 construct: Cdc1, S. pombe, point mutant; source: yeast two-hybrid fusion, in S. cerevisiae CTY10-5d
T3 sequence (looked up): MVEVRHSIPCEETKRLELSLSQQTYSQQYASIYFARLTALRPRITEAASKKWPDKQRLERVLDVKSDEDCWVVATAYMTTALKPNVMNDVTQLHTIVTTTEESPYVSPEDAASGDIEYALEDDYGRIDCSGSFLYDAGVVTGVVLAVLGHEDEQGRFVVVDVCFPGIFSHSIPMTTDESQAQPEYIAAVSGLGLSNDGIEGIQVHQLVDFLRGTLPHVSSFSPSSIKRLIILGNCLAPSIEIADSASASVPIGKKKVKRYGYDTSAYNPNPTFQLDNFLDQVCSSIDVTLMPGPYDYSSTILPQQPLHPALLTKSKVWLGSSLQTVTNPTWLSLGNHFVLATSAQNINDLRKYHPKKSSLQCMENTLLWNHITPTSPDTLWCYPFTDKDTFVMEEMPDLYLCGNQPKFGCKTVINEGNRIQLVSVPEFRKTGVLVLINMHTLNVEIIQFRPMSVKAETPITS

[4] = molecular target: T4, Cdc1-J12 (Schizosaccharomyces pombe, UniProt P87324 1-462, Ser-GlyValProHisSer-Ile)
T4 construct: Cdc1, S. pombe, with a pentapeptide inserted after residue 7; source: yeast two-hybrid fusion, in S. cerevisiae CTY10-5d
T4 sequence (looked up): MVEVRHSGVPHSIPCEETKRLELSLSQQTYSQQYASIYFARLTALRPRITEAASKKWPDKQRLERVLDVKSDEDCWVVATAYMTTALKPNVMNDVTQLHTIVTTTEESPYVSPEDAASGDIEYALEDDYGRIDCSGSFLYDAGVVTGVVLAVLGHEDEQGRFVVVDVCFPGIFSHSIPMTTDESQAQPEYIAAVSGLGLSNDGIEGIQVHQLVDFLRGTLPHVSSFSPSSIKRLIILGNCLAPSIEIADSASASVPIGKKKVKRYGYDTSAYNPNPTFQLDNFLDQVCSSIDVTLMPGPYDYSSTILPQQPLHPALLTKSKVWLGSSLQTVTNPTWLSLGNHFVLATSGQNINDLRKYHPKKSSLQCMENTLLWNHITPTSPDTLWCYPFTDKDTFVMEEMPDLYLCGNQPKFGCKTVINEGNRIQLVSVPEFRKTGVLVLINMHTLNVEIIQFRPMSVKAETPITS

B1: Pol3 (fission yeast DNA polymerase delta catalytic subunit) (natural protein, Schizosaccharomyces pombe, UniProt P30316 1-1086, looked up)
chain: MTDRSSNEGVVLNKENYPFPRRNGSIHGEITDVKRRRLSERNGYGDKKGSSSKEKTSSFEDELAEYASQLDQDEIKSSKDQQWQRPALPAINPEKDDIYFQQIDSEEFTEGSVPSIRLFGVTDNGNSILVHVVGFLPYFYVKAPVGFRPEMLERFTQDLDATCNGGVIDHCIIEMKENLYGFQGNEKSPFIKIFTTNPRILSRARNVFERGEFNFEELFPVGVGVTTFESNTQYLLRFMIDCDVVGMNWIHLPASKYQFRYQNRVSNCQIEAWINYKDLISLPAEGQWSKMAPLRIMSFDIECAGRKGVFPDPSIDPVIQIASIVTQYGDSTPFVRNVFCVDTCSQIVGTQVYEFQNQAEMLSSWSKFVRDVDPDVLIGYNICNFDIPYLLDRAKSLRIHNFPLLGRIHNFFSVAKETTFSSKAYGTRESKTTSIPGRLQLDMLQVMQRDFKLRSYSLNAVCSQFLGEQKEDVHYSIITDLQNGTADSRRRLAIYCLKDAYLPQRLMDKLMCFVNYTEMARVTGVPFNFLLARGQQIKVISQLFRKALQHDLVVPNIRVNGTDEQYEGATVIEPIKGYYDTPIATLDFSSLYPSIMQAHNLCYTTLLDSNTAELLKLKQDVDYSVTPNGDYFVKPHVRKGLLPIILADLLNARKKAKADLKKETDPFKKAVLDGRQLALKVSANSVYGFTGATNGRLPCLAISSSVTSYGRQMIEKTKDVVEKRYRIENGYSHDAVVIYGDTDSVMVKFGVKTLPEAMKLGEEAANYVSDQFPNPIKLEFEKVYFPYLLISKKRYAGLFWTRTDTYDKMDSKGIETVRRDNCPLVSYVIDTALRKMLIDQDVEGAQLFTKKVISDLLQNKIDMSQLVITKALSKTDYAAKMAHVELAERMRKRDAGSAPAIGDRVAYVIIKGAQGDQFYMRSEDPIYVLENNIPIDAKYYLENQLSKPLLRIFEPILGEKASSLLHGDHTRTISMAAPSVGGIMKFAVKVETCLGCKAPIKKGKTALCENCLNRSAELYQRQVAQVNDLEVRFARLWTQCQRCQGSMHQDVICTSRDCPIFYMRIAEHKKLQQSVDLLKRFDEMSW
notes: DNA polymerase delta catalytic subunit Pol3, S. pombe; prey plasmid named pACT-Pol3 in the results and pGAD2F-Pol3 in the methods; also called Gal4-Pol3; pACT-Pol3; source: yeast two-hybrid fusion, in S. cerevisiae CTY10-5d
B1 was tested, and the “two-hybrid beta-galactosidase activity, % of wild-type Cdc1” value [1] was < 1%, the “two-hybrid beta-galactosidase activity, % of wild-type Cdc1” value [2] was < 1% and the “two-hybrid beta-galactosidase activity, % of wild-type Cdc1” value [3] was 9%. For the same binder, the “two-hybrid beta-galactosidase activity, % of wild-type Cdc1” value [4] was < 1%.
